Changes are numbered by the printed parent chain. In names and notes the source's numbering stands.
T1: Tom20 (human (endogenous in fibroblasts and …, UniProt Q15388 1-145))
T1 construct: Tom20, mitochondria-specific marker, human, endogenous; source: endogenous, in fibroblasts and iPSC-derived motor neurons
T1 sequence (looked up): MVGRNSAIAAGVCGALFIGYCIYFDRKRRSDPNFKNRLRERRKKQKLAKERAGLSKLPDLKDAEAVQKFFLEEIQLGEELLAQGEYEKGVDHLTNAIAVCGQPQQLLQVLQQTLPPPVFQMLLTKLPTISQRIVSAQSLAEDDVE

B1: Fused in Sarcoma (FUS), endogenous wild type (natural protein, UniProt P35637 1-526, looked up)
chain: MASNDYTQQATQSYGAYPTQPGQGYSQQSSQPYGQQSYSGYSQSTDTSGYGQSSYSSYGQSQNTGYGTQSTPQGYGSTGGYGSSQSSQSSYGQQSSYPGYGQQPAPSSTSGSYGSSSQSSSYGQPQSGSYSQQPSYGGQQQSYGQQQSYNPPQGYGQQNQYNSSSGGGGGGGGGGNYGQDQSSMSSGGGSGGGYGNQDQSGGGGSGGYGQQDRGGRGRGGSGGGGGGGGGGYNRSSGGYEPRGRGGGRGGRGGMGGSDRGGFNKFGGPRDQGSRHDSEQDNSDNNTIFVQGLGENVTIESVADYFKQIGIIKTNKKTGQPMINLYTDRETGKLKGEATVSFDDPPSAKAAIDWFDGKEFSGNPIKVSFATRRADFNRGGGNGRGGRGRGGPMGRGGYGGGGSGGGGRGGFPSGGGGGGGQQRAGDWKCPNPTCENMNFSWRNECNQCKAPKPDGPGGGPGGSHMGGNYGDDRRGGRGGYDRGGYRGRGGDRGGFRGGRGGGDRGGFGPGKMDSRGEHRQDRRERPY
notes: Fused in Sarcoma (FUS), human, endogenous wild type; also called FUS WT; WT FUS; source: endogenous, in HEK293 cells, control fibroblasts, iPSC-derived motor neurons and NPSCs
B2: FUS P525L, endogenous mutant of ALS patient-derived cells (natural protein, UniProt P35637 1-526, looked up)
chain: B1 chain with P525L
notes: Fused in Sarcoma (FUS), human, with the ALS patient mutation P525L; source: endogenous, in ALS patient-derived fibroblasts, iPSC-derived motor neurons and NPSCs
B3: FUS R521H, endogenous mutant of ALS patient-derived cells (natural protein, UniProt P35637 1-526, looked up)
chain: B1 chain with R521H
notes: Fused in Sarcoma (FUS), human, with the ALS patient mutation R521H; source: endogenous, in ALS patient-derived fibroblasts and iPSC-derived motor neurons
B4: mtDNA Ligase IIIα (mtLig3) (enzyme, UniProt P49916 43-1009, looked up)
chain: LLHGHPLFLRRKPVLSFQGSHLRSRATYLVFLPGLHVGLCSGPCEMAEQRFCVDYAKRGTAGCKKCKEKIVKGVCRIGKVVPNPFSESGGDMKEWYHIKCMFEKLERARATTKKIEDLTELEGWEELEDNEKEQITQHIADLSSKAAGTPKKKAVVQAKLTTTGQVTSPVKGASFVTSTNPRKFSGFSAKPNNSGEAPSSPTPKRSLSSSKCDPRHKDCLLREFRKLCAMVADNPSYNTKTQIIQDFLRKGSAGDGFHGDVYLTVKLLLPGVIKTVYNLNDKQIVKLFSRIFNCNPDDMARDLEQGDVSETIRVFFEQSKSFPPAAKSLLTIQEVDEFLLRLSKLTKEDEQQQALQDIASRCTANDLKCIIRLIKHDLKMNSGAKHVLDALDPNAYEAFKASRNLQDVVERVLHNAQEVEKEPGQRRALSVQASLMTPVQPMLAEACKSVEYAMKKCPNGMFSEIKYDGERVQVHKNGDHFSYFSRSLKPVLPHKVAHFKDYIPQAFPGGHSMILDSEVLLIDNKTGKPLPFGTLGVHKKAAFQDANVCLFVFDCIYFNDVSLMDRPLCERRKFLHDNMVEIPNRIMFSEMKRVTKALDLADMITRVIQEGLEGLVLKDVKGTYEPGKRHWLKVKKDYLNEGAMADTADLVVLGAFYGQGSKGGMMSIFLMGCYDPGSQKWCTVTKCAGGHDDATLARLQNELDMVKISKDPSKIPSWLKVNKIYYPDFIVPDPKKAAVWEITGAEFSKSEAHTADGISIRFPRCTRIRDDKDWKSATNLPQLKELYQLSKEKADFTVVAGDEGSSTTGGSSEENKGPSGSAVSRKAPSKPSASTKKAEGKLSNSNSKDGNMQTAKPSAMKVGEKLATKSSPVKVGEKRKAADETLCQTKVLLDIFTGVRLYLPPSTPDFSRLRRYFVAFDGDLVQEFDMTSATHVLGSRDKNPAAQQVSPEWIWACIRKRRLVAPC
notes: DNA ligase IIIα, human, endogenous; also called LigIII; mitochondrial version of Lig3; source: endogenous, in HEK293 cells, fibroblasts, iPSC-derived motor neurons and NPSCs

Tests used:
Details in all cases: partners not purified
[1] = molecular target: T2, HSP60 (human (endogenous in fibroblasts and …, UniProt P10809 27-573)); test: proximity ligation; Duolink in situ PLA on fixed, permeabilised cells with anti-FUS and anti-Tom20 or anti-HSP60; patient derived fibroblasts and motor neurons (Fig. 1c, d; the panel's cell type is not told); untreated or glucose oxidase (GO)
T2 construct: HSP60, mitochondria-specific marker, human, endogenous; source: endogenous, in fibroblasts and motor neurons

[2] = molecular target: T1, Tom20; test: as above
[3] = molecular target: T1, Tom20; test: proximity ligation; Duolink in situ PLA on fixed, permeabilised control and patient iPSC-derived motor neurons (Fig. 1e, 4e); with or without GO; MitoTracker green counterstain; foci counted in 25 cells
[4] = molecular target: B3; test: as above
[5] = molecular target: B1; test: as above
[6] = molecular target: B2; test: as above

T2 sequence (P10809 27-573): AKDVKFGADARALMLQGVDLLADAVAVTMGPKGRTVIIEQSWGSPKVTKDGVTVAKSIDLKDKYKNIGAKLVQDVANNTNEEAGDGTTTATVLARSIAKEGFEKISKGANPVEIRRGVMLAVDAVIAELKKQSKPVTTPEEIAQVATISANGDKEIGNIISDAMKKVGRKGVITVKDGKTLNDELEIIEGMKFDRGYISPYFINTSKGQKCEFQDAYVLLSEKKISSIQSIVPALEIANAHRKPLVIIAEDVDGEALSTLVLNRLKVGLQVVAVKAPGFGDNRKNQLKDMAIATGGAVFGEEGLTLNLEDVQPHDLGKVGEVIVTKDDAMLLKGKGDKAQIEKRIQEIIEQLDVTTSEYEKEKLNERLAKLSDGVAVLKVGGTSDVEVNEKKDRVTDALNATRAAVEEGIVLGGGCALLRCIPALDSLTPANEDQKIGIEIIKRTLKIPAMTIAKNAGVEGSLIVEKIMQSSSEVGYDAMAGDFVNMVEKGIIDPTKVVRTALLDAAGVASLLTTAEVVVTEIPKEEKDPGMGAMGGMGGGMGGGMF

Binder | PLA foci, median (GO) [1] [PLA foci] | PLA foci, median (untreated) [1] [PLA foci] | PLA foci, median (untreated) [2] [PLA foci] | PLA foci, median (GO) [3] [PLA foci] | PLA foci, median (untreated) [3] [PLA foci] | PLA foci, median (GO) [4] [PLA foci] | PLA foci, median (GO) [5] [PLA foci] | PLA foci, median (GO) [6] [PLA foci]
B1 | 36 | 12 | 24 | 4 | 1 | – | – | –
B2 | 64 | 51 | 218 | 13 | 4 | – | – | –
B3 | 56 | 27 | 89 | 9 | 4 | – | – | –
B4 | – | – | – | – | – | 4 | 8 | 2

Source: publication PMC10925063, “FUS unveiled in mitochondrial DNA repair and targeted ligase-1 expression rescues repair-defects in FUS-linked motor neuron disease” (Nature Communications, 2024)
